In article PMC8465892, “CDR1 Composition Can Affect Nanobody Recombinant Expression Yields” (Biomolecules, 2021):
Positions count from the first letter of the chain named. Numbers in names are those of the source. One block for each binder: values may come before it.

Biological target: T1, Her2 ectodomain-Fc (UniProt P04626 23-652)
T1 construct: Her2 ectodomain
Assay: SPR; Biacore T200, 25 °C; Her2 ectodomain-Fc immobilized by amine-coupling on a CM5 chip at 1180 RU; nanobodies injected at 30 µL/min in 20 mM Hepes, 150 mM NaCl, 3 mM EDTA, 0.005% Tween 20, pH 7.4; eight concentrations between 250 and 3.5 nM; 1:1 Langmuir model
Conditions: both partners purified

- Kd: 4.9 nM
B1: A10 wt (VHH)
VHH: EVQLQASGGGFVQPGGSLRLSCAASGATSNISNMGWFRQAPGKEREFVSAISRAESRPLYYADSVKGRFTISRDNSKNTVYLQMNSLRAEDTATYYCAYMPLVRHKAYWGQGTQVTVSS
notes: anti-Her2 nanobody isolated by panning a synthetic library; also called anti-Her2 ectodomain nanobody A10; source: pET-derived vectors, produced as previously reported [17]

- Kd: 34.7 nM
B2: A10 mutKG (VHH)
VHH: EVQLQASGGGFVQPGGSLRLSCAASGAGTSNISNMGWFRQAPGKEREFVSAISRAESRPLYYADSVKGRFTISRDNSKNTVYLQMNSLRAEDTATYYCAYMPLVRHKAYWGQGTQVTVSS
notes: A10 wt with a glycine inserted after A29 in CDR1 (G29a); also called G29a; source: gene synthetized by Twist Bioscience, pET-derived vectors, produced as previously reported [17]

- Kd: 23.5 nM
B3: A10 mutG0 (VHH)
VHH: B2 VHH with G28T, T29S, S30G
notes: A10 wt with a glycine inserted after S31 in CDR1 (G31a); also called G31a; source: gene synthetized by Twist Bioscience, pET-derived vectors, produced as previously reported [17]

- Kd: 9.9 nM
B4: A10 mutKG.1 (VHH)
VHH: B2 VHH with A6E, F11L, S50A, R89K, A90P
notes: A10 mutKG (G29a) with five framework mutations printed as Q8E, F13L, S51A, R90K, A91P; source: gene synthetized by Doulix, pET-derived vectors, produced as previously reported [17]
